US20150299268A1

Legend:
[1] = molecular target: BaL-gp120 (HIV-1 BaL); assay: ELISA
[2] = molecular target: gp120-JR4-ScFV; assay: ELISA
[3] = molecular target: gp120-JR48.1-ScFV; assay: ELISA
[4] = molecular target: gp120-b12-ScFV; assay: ELISA
[5] = molecular target: FLSC R/T (HIV-1) (UniProt P01730); assay: ELISA
[6] = molecular target: gp120-VRC01-ScFV; assay: ELISA
[7] = molecular target: BaL-gp120 (HIV-1 BaL); assay: capture ELISA
[8] = molecular target: BaL-gp120-D368R (HIV-1 BaL); assay: capture ELISA
[9] = molecular target: BaL-gp120-D57A (HIV-1 BaL); assay: capture ELISA
[10] = molecular target: BaL-gp120-D57AD62A (HIV-1 BaL); assay: capture ELISA
[11] = molecular target: BaL-gp120-D57AD78A (HIV-1 BaL); assay: capture ELISA
[12] = molecular target: BaL-gp120-D62A (HIV-1 BaL); assay: capture ELISA
[13] = molecular target: BaL-gp120-D78A (HIV-1 BaL); assay: capture ELISA
[14] = molecular target: BaL-gp120-E106AD107A (HIV-1 BaL); assay: capture ELISA
[15] = molecular target: BaL-gp120-E31A (HIV-1 BaL); assay: capture ELISA
[16] = molecular target: BaL-gp120-E32A (HIV-1 BaL); assay: capture ELISA
[17] = molecular target: BaL-gp120-E47A (HIV-1 BaL); assay: capture ELISA
[18] = molecular target: BaL-gp120-E47AE91A (HIV-1 BaL); assay: capture ELISA
[19] = molecular target: BaL-gp120-E492A (HIV-1 BaL); assay: capture ELISA
[20] = molecular target: BaL-gp120-F53A (HIV-1 BaL); assay: capture ELISA
[21] = molecular target: BaL-gp120-G495A (HIV-1 BaL); assay: capture ELISA
[22] = molecular target: BaL-gp120-H105A (HIV-1 BaL); assay: capture ELISA
[23] = molecular target: BaL-gp120-I420R (HIV-1 BaL); assay: capture ELISA
[24] = molecular target: BaL-gp120-I423A (HIV-1 BaL); assay: capture ELISA
[25] = molecular target: BaL-gp120-I491A (HIV-1 BaL); assay: capture ELISA
[26] = molecular target: BaL-gp120-K33A (HIV-1 BaL); assay: capture ELISA
[27] = molecular target: BaL-gp120-K46A (HIV-1 BaL); assay: capture ELISA
[28] = molecular target: BaL-gp120-K487AK490A (HIV-1 BaL); assay: capture ELISA
[29] = molecular target: BaL-gp120-K500A (HIV-1 BaL); assay: capture ELISA
[30] = molecular target: BaL-gp120-L494A (HIV-1 BaL); assay: capture ELISA
[31] = molecular target: BaL-gp120-P493A (HIV-1 BaL); assay: capture ELISA
[32] = molecular target: BaL-gp120-P498A (HIV-1 BaL); assay: capture ELISA
[33] = molecular target: BaL-gp120-P76A (HIV-1 BaL); assay: capture ELISA
[34] = molecular target: BaL-gp120-R476A (HIV-1 BaL); assay: capture ELISA
[35] = molecular target: BaL-gp120-R476AR480A (HIV-1 BaL); assay: capture ELISA
[36] = molecular target: BaL-gp120-R58AK59A (HIV-1 BaL); assay: capture ELISA
[37] = molecular target: BaL-gp120-S158A (HIV-1 BaL); assay: capture ELISA
[38] = molecular target: BaL-gp120-S200A (HIV-1 BaL); assay: capture ELISA
[39] = molecular target: BaL-gp120-S334A (HIV-1 BaL); assay: capture ELISA
[40] = molecular target: BaL-gp120-T162A (HIV-1 BaL); assay: capture ELISA
[41] = molecular target: BaL-gp120-T303A (HIV-1 BaL); assay: capture ELISA
[42] = molecular target: BaL-gp120-T455A (HIV-1 BaL); assay: capture ELISA
[43] = molecular target: BaL-gp120-T499A (HIV-1 BaL); assay: capture ELISA
[44] = molecular target: BaL-gp120-V44A (HIV-1 BaL); assay: capture ELISA
[45] = molecular target: BaL-gp120-V496A (HIV-1 BaL); assay: capture ELISA
[46] = molecular target: BaL-gp120-V68A (HIV-1 BaL); assay: capture ELISA
[47] = molecular target: BaL-gp120-V75A (HIV-1 BaL); assay: capture ELISA
[48] = molecular target: BaL-gp120-W35A (HIV-1 BaL); assay: capture ELISA
[49] = molecular target: BaL-gp120-W45A (HIV-1 BaL); assay: capture ELISA
[50] = molecular target: BaL-gp120-W69A (HIV-1 BaL); assay: capture ELISA
[51] = molecular target: BaL-gp120-Y39A (HIV-1 BaL); assay: capture ELISA
[52] = molecular target: BaL-gp120-Y40A (HIV-1 BaL); assay: capture ELISA
[53] = molecular target: BaL-gp120-Y61A (HIV-1 BaL); assay: capture ELISA
[54] = molecular target: BaL-gp120-dV1 (HIV-1 BaL); assay: capture ELISA
[55] = molecular target: BaL-gp120-dV2 (HIV-1 BaL); assay: capture ELISA
[56] = molecular target: BaL-gp120-dV3 (HIV-1 BaL); assay: capture ELISA
[57] = molecular target: BaL-gp120-mV3 (HIV-1 BaL); assay: capture ELISA
[58] = molecular target: FLSC (HIV-1) (UniProt P01730); assay: capture ELISA
[59] = molecular target: core-D7 (HIV-1); assay: capture ELISA
[60] = molecular target: core-V1V2-D7 (HIV-1); assay: capture ELISA
[61] = molecular target: core-V3-D7 (HIV-1); assay: capture ELISA

## PG04 (antibody)
[1]
  Fold of Ab needed for ELISA binding OD equal to half max on gp120: 1 fold
[2]
  Fold of Ab needed for ELISA binding OD equal to half max on gp120: 0.26 fold
[3]
  Fold of Ab needed for ELISA binding OD equal to half max on gp120: 0.36 fold
[4]
  Fold of Ab needed for ELISA binding OD equal to half max on gp120: > 100 fold

## PGT128 (antibody)
[1]
  Fold of Ab needed for ELISA binding OD equal to half max on gp120: 1 fold
[5]
  Fold of Ab needed for ELISA binding OD equal to half max on gp120: 5.07 fold
[2]
  Fold of Ab needed for ELISA binding OD equal to half max on gp120: 0.13 fold
[3]
  Fold of Ab needed for ELISA binding OD equal to half max on gp120: 0.14 fold
[6]
  Fold of Ab needed for ELISA binding OD equal to half max on gp120: 0.23 fold
[4]
  Fold of Ab needed for ELISA binding OD equal to half max on gp120: 0.09 fold

## PG9 (antibody)
[1]
  Fold of Ab needed for ELISA binding OD equal to half max on gp120: 1 fold
[5]
  Fold of Ab needed for ELISA binding OD equal to half max on gp120: 8.02 fold
[2]
  Fold of Ab needed for ELISA binding OD equal to half max on gp120: 0.02 fold
[3]
  Fold of Ab needed for ELISA binding OD equal to half max on gp120: 0.07 fold
[6]
  Fold of Ab needed for ELISA binding OD equal to half max on gp120: 0.09 fold
[4]
  Fold of Ab needed for ELISA binding OD equal to half max on gp120: 0.06 fold

## 2G12 (antibody)
[1]
  Fold of Ab needed for ELISA binding OD equal to half max on gp120: 1 fold
[5]
  Fold of Ab needed for ELISA binding OD equal to half max on gp120: 0.91 fold
[2]
  Fold of Ab needed for ELISA binding OD equal to half max on gp120: 0.61 fold
[3]
  Fold of Ab needed for ELISA binding OD equal to half max on gp120: 0.58 fold
[6]
  Fold of Ab needed for ELISA binding OD equal to half max on gp120: 0.66 fold
[4]
  Fold of Ab needed for ELISA binding OD equal to half max on gp120: 0.56 fold
[7]
  % Binding: 100%
[8]
  % Binding: 82%
[9]
  % Binding: 91%
[10]
  % Binding: 105%
[11]
  % Binding: 95%
[12]
  % Binding: 86%
[13]
  % Binding: 87%
[14]
  % Binding: 79%
[15]
  % Binding: 80%
[16]
  % Binding: 93%
[17]
  % Binding: 96%
[18]
  % Binding: 86%
[19]
  % Binding: 93%
[20]
  % Binding: 99%
[21]
  % Binding: 93%
[22]
  % Binding: 89%
[23]
  % Binding: 93%
[24]
  % Binding: 94%
[25]
  % Binding: 92%
[26]
  % Binding: 83%
[27]
  % Binding: 92%
[28]
  % Binding: 83%
[29]
  % Binding: 92%
[30]
  % Binding: 79%
[31]
  % Binding: 93%
[32]
  % Binding: 93%
[33]
  % Binding: 90%
[34]
  % Binding: 98%
[35]
  % Binding: 83%
[36]
  % Binding: 88%
[37]
  % Binding: 80%
[38]
  % Binding: 92%
[39]
  % Binding: 16%
[40]
  % Binding: 87%
[41]
  % Binding: 88%
[42]
  % Binding: 87%
[43]
  % Binding: 100%
[44]
  % Binding: 93%
[45]
  % Binding: 96%
[46]
  % Binding: 82%
[47]
  % Binding: 89%
[48]
  % Binding: 99%
[49]
  % Binding: 92%
[50]
  % Binding: 87%
[51]
  % Binding: 89%
[52]
  % Binding: 93%
[53]
  % Binding: 81%
[54]
  % Binding: 93%
[55]
  % Binding: 82%
[56]
  % Binding: 100%
[57]
  % Binding: 100%
[58]
  % Binding: 104%
[59]
  % Binding: 100%
[60]
  % Binding: 100%
[61]
  % Binding: 86%

## A32 (antibody)
[1]
  Fold of Ab needed for ELISA binding OD equal to half max on gp120: 1 fold
[5]
  Fold of Ab needed for ELISA binding OD equal to half max on gp120: 0.04 fold
[2]
  Fold of Ab needed for ELISA binding OD equal to half max on gp120: > 100 fold
[3]
  Fold of Ab needed for ELISA binding OD equal to half max on gp120: 0.1 fold
[6]
  Fold of Ab needed for ELISA binding OD equal to half max on gp120: 0.2 fold
[4]
  Fold of Ab needed for ELISA binding OD equal to half max on gp120: 0.06 fold
